Source: paper PMC3853298, “The Concave Face of Decorin Mediates Reversible Dimerization and Collagen Binding*” (The Journal of Biological Chemistry, 2013)
Changes are numbered by the printed parent chain. Names may count otherwise.

B1: mouse decorin core protein, wild type (residues 45-354) (domain or fragment)
chain: APLALISMCPYRCQCHLRVVQCSDLGLDKVPWDFPPDTTLLDLQNNKITEIKEGAFKNLKDLHTLILVNNKISKISPEAFKPLVKLERLYLSKNQLKELPEKMPRTLQELRVHENEITKLRKSDFNGLNNVLVIELGGNPLKNSGIENGAFQGLKSLSYIRISDTNITAIPQGLPTSLTEVHLDGNKITKVDAPSLKGLINLSKLGLSFNSITVMENGSLANVPHLRELHLDNNKLLRVPAGLAQHKYIQVVYLHNNNISAVGQNDFCRAGHPSRKASYSAVSLYGNPVRYWEIFPNTFRCVYVRSAIQLGNYKAAA
modifications: N-linked glycans (four consensus sites for N-linked glycosylation)
notes: vector-encoded residues left at the N-terminus after cleavage of the BM-40 signal peptide; decorin, mouse, UniProt P28654, residues 45-354; the numbering includes the signal peptide; corresponds to the ordered residues of the bovine decorin core crystal structure; Core protein without the glycosaminoglycan attachment region; exists in a monomer-dimer equilibrium; also called WT; wild-type mouse …
B2: mouse decorin core protein R151E (residues 45-354) (domain or fragment)
chain: B1 chain with R111E
modifications: N-linked glycans (four consensus sites for N-linked glycosylation)
notes: vector-encoded residues left at the N-terminus after cleavage of the BM-40 signal peptide; decorin, mouse, UniProt P28654, residues 45-354; the numbering includes the signal peptide; R151E reverses a charge in LRR5; source: HEK293 c18 cells, episomally transfected (pCEP-Pu), secreted; purified from conditioned medium (HisTrap, Superdex 200); not shown: His6, C-terminal, kept
B3: mouse decorin core protein Y51A/R52A/Q54A (residues 45-354) (domain or fragment)
chain: B1 chain with Y11A, R12A, Q14A
modifications: N-linked glycans (four consensus sites for N-linked glycosylation)
notes: vector-encoded residues left at the N-terminus after cleavage of the BM-40 signal peptide; decorin, mouse, UniProt P28654, residues 45-354; the numbering includes the signal peptide; triple mutation in the N-terminal cap; also called Y51A/R52A/Q54 mutant; source: HEK293 c18 cells, episomally transfected (pCEP-Pu), secreted; purified from conditioned medium (HisTrap, Superdex 200); not shown: …

Target: the molecule itself
Test: SEC-MALS; injected at 3 mg/ml (83 uM) onto Superdex 200 10/30, TBS (20 mM Tris, 150 mM NaCl, pH 7.5), 0.2 ml/min; three-detector method for the polypeptide mass

Row | Protein | stoichiometry N
1 | B1 | 2
2 | B2 | 2
3 | B3 | 2

Target: the molecule itself
Test: AUC; sedimentation velocity, 20 °C, 40,000 rpm, PBS, 0.028 (0.77 uM) to 3.4 mg/ml (94 uM); c(s) peaks of monomer and dimer integrated and fitted to a monomer-dimer equilibrium; dimer to monomers

Row | Protein | Kd
4 | B1 | 1370 ± 300 nM
5 | B2 | 470 ± 90 nM
6 | B3 | 2300 ± 800 nM
